Measurements taken from paper PMC7691350, “Integron gene cassettes harboring novel variants of D-alanine-D-alanine ligase confer high-level resistance to D-cycloserine” (Scientific Reports, 2020).
Like-named read-outs stand apart in the source and are kept apart here.

How the values were obtained:
Ddl6 = assay: PK/LDH-coupled spectrophotometric assay, […] nm; assay type: biochemical; details: 10 mM MgCl2, 10 mM KCl, 100 mM HEPES pH 7.5, 37 °C
C[C@@H](N)C(=O)O = assay: purified protein; details: second D-alanine binding, 500 µM ATP, 10 mM MgCl2, 10 mM KCl, 100 mM HEPES pH 7.5, 37 °C
[1] = tested on: Nc1ncnc2c1ncn2[C@@H]1O[C@H](COP(=O)(O)OP(=O)(O)OP(=O)(O)O)[C@@H](O)[C@H]1O; assay: purified protein; details: 100 mM D-alanine, ATP 5-320 µM, 10 mM MgCl2, 10 mM KCl, 100 mM HEPES pH 7.5, 37 °C

| Compound | Km (Ddl6; read-out: Km, ATP, 100 mM D-alanine, ATP 5-320 µM) [µM] | Km (Ddl6; second D-alanine binding, 500 µM ATP, read-out: Km, D-ala2) [µM] | Km (C[C@@H](N)C(=O)O) [µM] | kcat (C[C@@H](N)C(=O)O) [s⁻¹] | kcat/Km (C[C@@H](N)C(=O)O) [M⁻¹ s⁻¹] | Km [1] [µM] |
| --- | --- | --- | --- | --- | --- | --- |
| Nc1ncnc2c1ncn2[C@@H]1O[C@H](COP(=O)(O)OP(=O)(O)OP(=O)(O)O)[C@@H](O)[C@H]1O [ATP] | 55 |  |  |  |  |  |
| C[C@@H](N)C(=O)O [D-alanine] |  | 390 |  |  |  |  |
| DdlAEc (Escherichia coli K-12) |  |  | 520 | 6.43 | 12500 | 48.99 |
| DdlTd (Treponema denticola ATCC 35405) |  |  | 450 | 3.74 | 8290 | 19.08 |
